Consider 22 variants from FireProtDB.

B1: Ribonuclease, P00648 (parent)
chain: MMKMEGIALKKRLSWISVCLLVLVSAAGMLFSTAAKTETSSHKAHTEAQVINTFDGVADYLQTYHKLPDNYITKSEAQALGWVASKGNLADVAPGKSIGGDIFSNREGKLPGKSGRTWREADINYTSGFRNSDRILYSSDWLIYKTTDHYQTFTKIR

Variants of B1 are the subject of the first series. To be noted: Bacillus amyloliquefaciens; pH 6.3; 25 °C; Urea; Fluorescence; MES 1.00 M; NaCl 613 mM; reversible: yes; structure 1BNI; whole UniProt chain shown.
On to Y64A, for which the “ddG of mutation (higher = less stable)” value worked out at 2.26 kcal/mol.
On the same count and under the same terms, the same measure for T63S Y64A: 2.39 kcal/mol; for Y60A: 3.71 kcal/mol.
On the same count and under the same terms, the same measure for Y60A Y64A: 4.64 kcal/mol.

Staying with this series, now noted: Bacillus amyloliquefaciens; pH 6.3; 25 °C; Urea; Fluorescence; MES 50 mM; reversible: yes; structure 1BNI; whole UniProt chain shown.
On to I143V, for which the “ddG of mutation (higher = less stable)” value came out at 0.98 kcal/mol.
Turning to I143A, the “ddG of mutation (higher = less stable)” value was 3.52 kcal/mol.
For T73A, the “ddG of mutation (higher = less stable)” value was 2.14 kcal/mol.
In the case of L61A, the “ddG of mutation (higher = less stable)” value was 4.8 kcal/mol.
For the variant H65Q, the “ddG of mutation (higher = less stable)” value was found to be 1.6 kcal/mol.
Consider T53A, for which the “ddG of mutation (higher = less stable)” value was found to be 2.23 kcal/mol.
With T63S, the “ddG of mutation (higher = less stable)” value was determined as 1.87 kcal/mol.
Still for that read-out and setting: the same measure for I135A: 4.46 kcal/mol.

Staying with this series, now noted: Bacillus amyloliquefaciens; pH 6.3; 25 °C; Urea; Fluorescence; MES 19.3 mM; reversible: yes; structure 1BNI; whole UniProt chain shown.
In the case of I143A, the “ddG of mutation (higher = less stable)” value was determined as 4 kcal/mol, the “denaturant midpoint (higher = more stable)” value (“denaturant midpoint” for short) came out at 2.24 M and the unfolding free energy stood at 6.5 kcal/mol.

Still in this series, the particulars now being: Bacillus amyloliquefaciens; pH 2.7; Thermal; CD; glycine-HCl 20 mM; KCl 200 mM; reversible: yes; structure 1BNI; whole UniProt chain shown.
Take I51A I98V: the melting temperature (Tm) – broadly, the temperature at which the thermal transition is half complete – amounted to 25.7 °C.

The same series, now with this note: Bacillus amyloliquefaciens; pH 2.7; Thermal; DSC; glycine-HCl 20 mM; KCl 200 mM; reversible: yes; structure 1BNI; whole UniProt chain shown.
As to I51A I98V, the Tm is 25.4 °C.

The series is the same for the next values; noted with them: Bacillus amyloliquefaciens; pH 6.3; 25 °C; Urea; Fluorescence; MES 1 M; structure 1BNI; whole UniProt chain shown.
For the variant H65G, the “ddG of mutation (higher = less stable)” value came to 0.89 kcal/mol and the unfolding free energy worked out at 8.01 kcal/mol.
For H65A, in that order: 2.15 kcal/mol and 6.75 kcal/mol.
Take A79G: the “ddG of mutation (higher = less stable)” value was 0.91 kcal/mol and the unfolding free energy was found to be 7.99 kcal/mol.
For K74A, in that order: -0.53 kcal/mol and 9.43 kcal/mol.

Still in this series, the particulars now being: Bacillus amyloliquefaciens; pH 6.3; 25 °C; Urea; Fluorescence; MES 10 mM; reversible: yes; structure 1BNI; whole UniProt chain shown.
Consider S75E, for which the “ddG of mutation (higher = less stable)” value was -0.61 kcal/mol, the denaturant m value is 1.99 kcal/mol/M, the “denaturant midpoint” value is 4.74 M and the unfolding free energy was 9.44 kcal/mol.

The series is the same for the next values; noted with them: Bacillus amyloliquefaciens; pH 6.3; 25 °C; Urea; Fluorescence; MES 50 mM; structure 1BNI; whole UniProt chain shown.
Take E120W: the “ddG of mutation (higher = less stable)” value was found to be 2.2 kcal/mol.
Same read-out and setting: the same measure for E120Q: 2.7 kcal/mol; for E120F: 2.1 kcal/mol.

Still in this series, the particulars now being: Bacillus amyloliquefaciens; pH 6.15; 25 °C; Urea; Fluorescence; MES 19.3 mM; reversible: yes; structure 1BNI; whole UniProt chain shown.
In the case of F54L, the “ddG of mutation (higher = less stable)” value is 4.1 kcal/mol, the “denaturant midpoint” value turned out to be 2.42 M and the unfolding free energy is 6.4 kcal/mol.
